Laboratory results as given in paper PMC10281602.

T1: PbrNSC (Pyrus bretschneideri? (pear …, UniProt A0A5J6X514 1-400))
T1 sequence: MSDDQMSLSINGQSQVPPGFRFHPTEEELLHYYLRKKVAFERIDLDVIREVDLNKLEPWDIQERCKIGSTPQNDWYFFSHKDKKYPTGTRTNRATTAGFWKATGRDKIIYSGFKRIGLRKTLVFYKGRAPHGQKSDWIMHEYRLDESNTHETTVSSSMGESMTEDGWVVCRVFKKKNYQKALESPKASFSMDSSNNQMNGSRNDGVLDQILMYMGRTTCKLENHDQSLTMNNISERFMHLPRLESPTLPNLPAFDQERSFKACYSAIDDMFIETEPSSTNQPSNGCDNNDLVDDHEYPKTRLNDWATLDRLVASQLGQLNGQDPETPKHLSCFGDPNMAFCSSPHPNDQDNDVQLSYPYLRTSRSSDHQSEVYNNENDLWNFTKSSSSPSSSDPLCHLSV

T2: PbrARF13 (Pyrus bretschneideri? (pear …, UniProt UPI00202FA75D 49-757))
T2 sequence: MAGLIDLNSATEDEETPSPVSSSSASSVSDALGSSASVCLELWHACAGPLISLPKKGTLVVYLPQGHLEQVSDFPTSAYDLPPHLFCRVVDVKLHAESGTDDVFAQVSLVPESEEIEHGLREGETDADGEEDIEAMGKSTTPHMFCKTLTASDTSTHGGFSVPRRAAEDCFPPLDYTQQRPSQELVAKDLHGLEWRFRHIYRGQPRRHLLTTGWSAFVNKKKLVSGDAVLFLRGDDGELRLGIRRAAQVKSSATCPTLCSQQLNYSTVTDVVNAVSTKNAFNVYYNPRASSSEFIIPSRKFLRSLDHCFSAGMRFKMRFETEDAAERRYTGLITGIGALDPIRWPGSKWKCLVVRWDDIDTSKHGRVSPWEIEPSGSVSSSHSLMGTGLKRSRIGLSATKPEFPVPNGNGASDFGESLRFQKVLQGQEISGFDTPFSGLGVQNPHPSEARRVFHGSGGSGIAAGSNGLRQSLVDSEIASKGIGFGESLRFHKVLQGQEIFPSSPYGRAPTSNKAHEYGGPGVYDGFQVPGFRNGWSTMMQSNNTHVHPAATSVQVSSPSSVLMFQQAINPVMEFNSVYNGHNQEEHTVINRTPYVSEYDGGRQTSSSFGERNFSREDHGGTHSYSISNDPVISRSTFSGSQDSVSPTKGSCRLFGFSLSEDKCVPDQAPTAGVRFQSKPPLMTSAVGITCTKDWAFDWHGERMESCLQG

B1: SNBE probe (dsDNA)
DNA 1: ATACTTGAAACCTAAGTAA
DNA 2: TTACTTAGGTTTCAAGTAT
B2: AuxRE-2 unlabelled competitor (dsDNA)
DNA 1: ATCATCTCTGTCTCTCTCTTGC
DNA 2: GCAAGAGAGAGACAGAGATGAT
B3: AuxRE-2 mutant probe (dsDNA)
DNA 1: ATCATCTCGAGAGATCTCTTGC
DNA 2: GCAAGAGATCTCTCGAGATGAT
B4: AuxRE-2 probe (dsDNA)
DNA 1: ATCATCTCTGTCTCTCTCTTGC
DNA 2: GCAAGAGAGAGACAGAGATGAT

Columns and labels:
PbrNSC = biological target: T1, PbrNSC; experiment: EMSA
PbrARF13 [1] = biological target: T2, PbrARF13; experiment: competition
PbrARF13 [2] = biological target: T2, PbrARF13; experiment: EMSA

Row | Binder | binding result (PbrARF13 [2]) | other results
1 | B1 |  | binding result (PbrNSC): binds
2 | B2 |  | binding result (PbrARF13 [1]): binds
3 | B3 | no binding | 
4 | B4 | binds | 
